A word on the EC50: it is the concentration that produces a half-maximal response. Lower therefore signals greater potency. One may read the Kd as the free concentration of one partner at which half of the binding sites on the other are occupied at equilibrium, for simple one-to-one binding. The low end stands for higher affinity, the high end for lower affinity.

In assay [1] the target is mouse CD137 expressed on DO11.10 cells (DO11.10-mCD137) (mouse) (UniProt P20334). As to the kind of experiment: cell-based or functional assay.
Assay [2] addresses human OX40 expressed on DO11.10 cells (DO11.10-hOX40) (human) (UniProt P43489). As to the kind of experiment: cell-based or functional assay.
Assay [3] concerns the target cynomolgus OX40 expressed on DO11.10 cells (DO11.10-cOX40) (cynomolgus). As to the kind of experiment: flow cytometry on DO11.10 cells expressing the target. Background: In flow cytometry, cells or beads pass a laser one at a time.
For assay [4], the target named is human OX40 expressed on DO11.10 cells (DO11.10-hOX40) (human) (UniProt P43489). The description is as above.
For assay [5], the target named is hFcγR1 (R&D Systems 1257-FC-050/CF) (human) (UniProt P12314). As to the kind of experiment: SPR, antibody 100 nM on OX40-his chip co-injected with FcγR 500 nM. For orientation: Surface plasmon resonance follows binding to a sensor surface in real time, without labels.
The target in assay [6] is hFcγR2a (R&D Systems 1330-CD-050/CF) (human) (UniProt P12318). Described as above.
For assay [7], the target named is hFcγR2b (R&D Systems 1460-CD-050/CF) (human) (UniProt P31994). The assay is described as above.
The target of assay [8] is hFcγR3a (R&D Systems 4325-FC-050/CF) (human) (UniProt P08637). The assay is described as above.
In a further assay the target is hOX40-mFc (human). The assay can be described thus: SPR, antibody captured via anti-human Fab, dimeric antigen flowed, 1:1 fit.
Assay [9] has as its target mouse CD137 expressed on DO11.10 cells (DO11.10-mCD137) (mouse) (UniProt P20334). The assay can be described thus: flow cytometry on DO11.10 cells expressing the target.
Assay [10] concerns the target cynomolgus OX40 expressed on DO11.10 cells (DO11.10-cOX40) (cynomolgus). The assay can be described thus: flow cytometry on DO11.10-cOX40.
In assay [11] the target is human OX40 expressed on DO11.10 cells (DO11.10-hOX40) (human) (UniProt P43489). As to the kind of experiment: flow cytometry on DO11.10-hOX40.
In assay [12] the target is hFcγR1 (R&D Systems 1257-FC-050/CF) (human) (UniProt P12314). The assay can be described thus: SPR, antibody 100 nM on CD137-his chip co-injected with FcγR 500 nM.
For assay [13], the target named is hFcγR2a (R&D Systems 1330-CD-050/CF) (human) (UniProt P12318). The description is as above.
Assay [14] has as its target hFcγR2b (R&D Systems 1460-CD-050/CF) (human) (UniProt P31994). The description is as above.
For assay [15], the target named is hFcγR3a (R&D Systems 4325-FC-050/CF) (human) (UniProt P08637). The assay is described as above.

hFcγR3a (R&D Systems 4325-FC-050/CF) (human), sequence (P08637 17-208 limits assumed): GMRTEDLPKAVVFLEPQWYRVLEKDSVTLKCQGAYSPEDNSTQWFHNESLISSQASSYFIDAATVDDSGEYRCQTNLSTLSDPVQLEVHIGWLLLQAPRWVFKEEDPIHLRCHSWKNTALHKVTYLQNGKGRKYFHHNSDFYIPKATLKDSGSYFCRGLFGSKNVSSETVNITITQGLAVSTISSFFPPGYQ
hFcγR1 (R&D Systems 1257-FC-050/CF) (human), sequence (P12314 16-288 limits assumed): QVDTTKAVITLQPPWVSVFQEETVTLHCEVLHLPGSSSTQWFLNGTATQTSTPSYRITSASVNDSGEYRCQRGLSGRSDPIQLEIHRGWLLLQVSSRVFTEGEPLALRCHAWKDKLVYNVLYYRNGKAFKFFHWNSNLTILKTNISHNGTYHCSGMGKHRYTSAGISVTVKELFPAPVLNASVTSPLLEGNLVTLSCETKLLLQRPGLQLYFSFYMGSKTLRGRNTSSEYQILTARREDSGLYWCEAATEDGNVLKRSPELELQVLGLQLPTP
hFcγR2a (R&D Systems 1330-CD-050/CF) (human), sequence (P12318 36-218 limits assumed): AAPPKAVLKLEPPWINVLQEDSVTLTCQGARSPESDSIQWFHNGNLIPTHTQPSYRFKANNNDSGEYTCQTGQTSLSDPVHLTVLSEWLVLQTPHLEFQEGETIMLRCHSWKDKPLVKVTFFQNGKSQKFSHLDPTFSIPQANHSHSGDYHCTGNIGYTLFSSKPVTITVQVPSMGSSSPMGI
human OX40 expressed on DO11.10 cells (DO11.10-hOX40) (human), sequence (P43489 29-277): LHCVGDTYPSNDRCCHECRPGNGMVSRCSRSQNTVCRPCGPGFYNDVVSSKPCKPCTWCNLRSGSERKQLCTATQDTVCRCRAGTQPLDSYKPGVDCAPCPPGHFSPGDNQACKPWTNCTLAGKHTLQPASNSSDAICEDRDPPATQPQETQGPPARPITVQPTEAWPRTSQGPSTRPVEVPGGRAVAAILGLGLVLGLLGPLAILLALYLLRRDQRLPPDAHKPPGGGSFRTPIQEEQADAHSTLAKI
hFcγR2b (R&D Systems 1460-CD-050/CF) (human), sequence (P31994 46-217 limits assumed): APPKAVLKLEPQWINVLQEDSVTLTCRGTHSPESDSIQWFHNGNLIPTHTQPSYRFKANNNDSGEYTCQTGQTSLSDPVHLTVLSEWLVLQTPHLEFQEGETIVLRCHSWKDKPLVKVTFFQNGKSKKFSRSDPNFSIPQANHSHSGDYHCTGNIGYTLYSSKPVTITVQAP
mouse CD137 expressed on DO11.10 cells (DO11.10-mCD137) (mouse), sequence (P20334 24-256): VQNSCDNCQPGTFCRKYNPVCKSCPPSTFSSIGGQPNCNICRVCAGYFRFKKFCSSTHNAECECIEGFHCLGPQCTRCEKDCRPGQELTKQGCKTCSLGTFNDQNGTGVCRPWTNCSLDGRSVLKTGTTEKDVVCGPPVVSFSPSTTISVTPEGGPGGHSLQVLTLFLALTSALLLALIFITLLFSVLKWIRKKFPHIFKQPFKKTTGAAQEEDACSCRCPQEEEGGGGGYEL
cynomolgus OX40 expressed on DO11.10 cells (DO11.10-cOX40) (cynomolgus), sequence (P43489 other isoform, or with tags, fused parts or gaps): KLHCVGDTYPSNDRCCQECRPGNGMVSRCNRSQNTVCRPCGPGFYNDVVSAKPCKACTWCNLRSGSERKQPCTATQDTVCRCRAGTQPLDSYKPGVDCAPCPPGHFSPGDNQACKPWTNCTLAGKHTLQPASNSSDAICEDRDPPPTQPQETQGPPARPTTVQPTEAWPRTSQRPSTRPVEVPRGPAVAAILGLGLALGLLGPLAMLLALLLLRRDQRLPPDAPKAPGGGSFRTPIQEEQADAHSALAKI
hOX40-mFc (human), sequence (chain, as listed by the source limits assumed): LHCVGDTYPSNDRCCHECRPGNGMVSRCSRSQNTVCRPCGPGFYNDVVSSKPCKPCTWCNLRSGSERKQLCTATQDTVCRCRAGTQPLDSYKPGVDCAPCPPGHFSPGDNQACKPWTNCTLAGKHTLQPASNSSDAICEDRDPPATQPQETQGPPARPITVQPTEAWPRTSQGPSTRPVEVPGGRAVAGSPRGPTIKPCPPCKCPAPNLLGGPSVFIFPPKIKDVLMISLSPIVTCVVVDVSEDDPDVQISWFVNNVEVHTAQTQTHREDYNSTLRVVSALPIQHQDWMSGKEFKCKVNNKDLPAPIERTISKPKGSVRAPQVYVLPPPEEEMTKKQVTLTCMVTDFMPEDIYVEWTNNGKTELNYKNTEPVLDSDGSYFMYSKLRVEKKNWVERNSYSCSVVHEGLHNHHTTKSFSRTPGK

In assay [1], G1AA/Lob12.3 (antibody) had a mouse pan-T cell activation assay, mIL-2 max response, crosslinked of 374 pg/mL and a mouse pan-T cell activation assay, mIL-2 release EC50, crosslinked of 1.18 nM.

G1/11D4 (antibody) came in with an SEA assay (PBMC), hIL-2 max response, crosslinked in assay [2] of 6610 pg/mL. Moreover, the SEA assay (PBMC), hIL-2 release EC50, crosslinked in [2] is 0.13 nM. For the same substance, the pan-T cell activation assay, hIL-2 max response, crosslinked in [2] was found to be 6380 pg/mL. Also, in assay [2], the pan-T cell activation assay, hIL-2 release EC50, crosslinked worked out at 0.0513 nM. In addition, the values for the EC50 in [3] and in [4] were 0.0941 nM and 0.125 nM, respectively. In addition, the binding response at end of association phase of FcγR in [5] came out at 370 RU; in [6], 123 RU; in assay [7], 89.7 RU; in assay [8], 143 RU. The same substance had a decrease of binding response at end of dissociation phase of FcγR in assay [5] of 46.4 RU. Also, in the assay with hOX40-mFc (human), the Kd came to 0.0337 nM.

In [9], G1/Lob12.3 (antibody) gave an EC50 of 0.121 nM.

Regarding G1AA/11D4 (antibody), in assay [2], the CD4+ T cell activation assay, hIL-2 max response, crosslinked came to 8820 pg/mL; the CD4+ T cell activation assay, hIL-2 release EC50, crosslinked was 0.0813 nM; the CD8+ T cell activation assay, hIL-2 max response, crosslinked stood at 388 pg/mL; the CD8+ T cell activation assay, hIL-2 release EC50, crosslinked came to 0.0996 nM. In [2], the SEA assay (PBMC), hIL-2 max response, crosslinked was 4270 pg/mL; the SEA assay (PBMC), hIL-2 release EC50, crosslinked worked out at 0.0716 nM; the pan-T cell activation assay, hIL-2 max response, crosslinked is 4130 pg/mL; the pan-T cell activation assay, hIL-2 release EC50, crosslinked is 0.13 nM. The substance also came in with an EC50 in assay [10] of 0.213 nM. The same substance had an EC50 in assay [11] of 0.814 nM. Also, in assay [5], the binding response at end of association phase of FcγR is 292 RU and the decrease of binding response at end of dissociation phase of FcγR is 203 RU. In addition, in assay [6], the binding response at end of association phase of FcγR is 64.5 RU. The substance further gave a binding response at end of association phase of FcγR in assay [7] of 60.9 RU. The substance further yielded a binding response at end of association phase of FcγR in assay [8] of 67.3 RU.

Take G4/20H4.9 (antibody): the binding response at end of association phase of FcγR is 693 RU in [12], 156 RU in [13], 164 RU in assay [14] and 113 RU in assay [15]. In addition, in [12], the decrease of binding response at end of dissociation phase of FcγR is 57.1 RU.
